# IntAct's records for PubMed 19737520
# B1: Trigger factor (Thermotoga maritima (strain ATCC 43589 / MSB8 / DSM 3109 / JCM 10099)), Q9WZF8 (parent)
# chain: MEVKELERDKNRVVLEYVFGAEEIAQAEDKAVRYLNQRVEIPGFRKGRIPKNVLKMKLGEEFQEYTLDFLMDLIPDTLKDRKLILSPIVTERELKDVTARVVVEVHEEPEVRIGDISKIEVEKVDEEKVLEKYVERRIEDLRESHALLEPKEGPAEAGDLVRVNMEVYNEEGKKLTSREYEYVISEDEDRPFVKDLVGKKKGDVVEIEREYEGKKYTYKLEVEEVYKRTLPEIGDELAKSVNNEFETLEQLKESLKKEGKEIYDVEMKESMREQLLEKLPEIVEIEISDRTLEILVNEAINRLKREGRYEQIVSSYESEEKFREELKERILDDIKRDRVIEVLAQEKGISVNDEELEKEAEELAPFWGISPDRAKSLVKARQDLREELRWAILKRKVLDLLLQEVKVKVVEPKGEGDDSEGKEDN
# partner: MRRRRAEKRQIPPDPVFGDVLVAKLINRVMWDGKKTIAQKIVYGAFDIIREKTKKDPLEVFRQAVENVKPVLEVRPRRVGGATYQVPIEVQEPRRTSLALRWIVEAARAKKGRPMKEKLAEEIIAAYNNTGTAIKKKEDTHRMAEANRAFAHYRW
# Variants of: B1
# Settings: with rs7_thema rpsG
row,effect of a mutation on the interaction,Variant
1,disrupting interaction,E266R;E269R;E273R
